Results taken from patent US20180237534A1 (Bristol-Myers Squibb, published 2018).

Columns and labels:
[1] = biological target: T1, human OX40, membrane-bound (human, UniProt P43489 29-277); experiment: FACS on activated primary human CD4+/CD25+ T cells, purified recombinant antibody, APC GMFI
T1 sequence: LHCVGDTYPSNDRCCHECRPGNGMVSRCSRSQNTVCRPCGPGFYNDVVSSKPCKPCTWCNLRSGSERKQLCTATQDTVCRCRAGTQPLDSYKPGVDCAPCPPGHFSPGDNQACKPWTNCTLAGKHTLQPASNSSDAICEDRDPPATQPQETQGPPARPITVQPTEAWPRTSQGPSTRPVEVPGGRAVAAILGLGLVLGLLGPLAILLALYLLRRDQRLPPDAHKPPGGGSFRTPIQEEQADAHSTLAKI
Method: Cells were activated for several days before the binding assay in order to induce OX40 expression. Briefly, PBMCs were cultured for three or four days with magnetic beads coated with anti-human CD3 plus anti-human CD28, in the presence of recombinant human IL-2. On the day of the assay, the beads were removed and the cells stained with a titration of each anti-OX40 antibody. Bound antibodies were detected with a fluorescently conjugated anti-human IgG polyclonal secondary antibody, and the cells were co-stained for CD4 and CD25 to detect activated CD4 T cells. The fluorescence intensity of the staining was measured using a FACSCanto II flow cytometer (Becton Dickinson). The geometric mean fluorescence intensity (GMFI) or median fluorescence intensity (MedFI) of anti-OX40 antibody staining was calculated for the CD4+CD25+ population (FACSDiva software). EC₅₀s for antibody binding were calculated using GraphPad Prism software.

[2] = biological target: T2, cynomolgus OX40, membrane-bound (cynomolgus monkey, UniProt P43489 29-277 (human entry)); experiment: FACS on activated primary cynomolgus CD4+/CD25+ T cells, purified recombinant antibody, APC GMFI
T2 construct: also called cynoOX40-CHO
T2 chain: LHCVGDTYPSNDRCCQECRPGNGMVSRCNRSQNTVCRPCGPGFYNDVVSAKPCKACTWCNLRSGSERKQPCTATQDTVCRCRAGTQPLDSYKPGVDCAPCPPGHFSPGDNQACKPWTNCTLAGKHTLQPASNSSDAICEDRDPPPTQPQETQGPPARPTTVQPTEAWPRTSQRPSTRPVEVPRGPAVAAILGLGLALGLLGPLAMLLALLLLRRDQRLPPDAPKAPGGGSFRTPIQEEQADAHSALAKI
Method: Briefly, cells were activated for several days before the binding assay in order to induce OX40 expression. Total leukocytes were isolated from cynomolgus macaque peripheral blood by lysis of red blood cells using an ammonium chloride buffer. The leukocytes were then cultured for four to five days with in flasks pre-coated with anti-human CD3 plus anti-human CD28 antibodies that cross-react with cynomolgus macaque, in the presence of recombinant human IL-2, in order to expand and activate T cells. On the day of the assay, the cells were harvested and stained with a titration of each anti-OX40 antibody. Bound antibodies were detected with a fluorescently conjugated anti-human IgG polyclonal secondary antibody, and the cells were co-stained for CD4 and CD25 to detect activated CD4 T cells. The fluorescence intensity of the staining was measured using a FACSCanto II flow cytometer (Becton Dickinson). The geometric mean fluorescence intensity (GMFI) or median fluorescence intensity (MedFI) of anti-OX40 antibody staining was calculated for the CD4+CD25+ population (FACSDiva software). Dose-response curves were generated and EC50s for antibody binding were calculated using GraphPad Prism software.
The same experiment was performed with anti-OX40 antibodies with variable region substitutions.

B1: OX40.6 (antibody, human IgG1, kappa, V domains shown)
VH: EVQLVQSGGGLVQPGGSLRLSCAGSGFTFSNYAMYWVRQAPGKGLEWVSAIGIGGDTFYTDSVKGRFTISRDNAKNSLSLQMNSLRAEDTAVYYCARMGTGYFFDYWGQGTLVTVSS
VL: EIVLTQSPATLSLSPGERATLSCRASQSVSSYLAWYQQKPGQAPRLLIYDASNRATGIPARFSGSGSGTDFTLTISSLEPEDFAVYYCQQRSNWPLTFGPGTKVDIKR
notes: g1f; 23H3 with VH-H13Q/M87T
**Q.** How did the “EC50 (read off the curve)” value [1] turn out when B1 was run?
**A.** Its value is ~100 pM.

**Q.** And the “EC50 (read off the curve)” value [2]?
**A.** The value was ~100 pM.
